Measurements from patent US20250179160A1 (OMEROS, published 2025).

What was measured:
[1] = molecular target: T1, recombinant human Pro-Factor D (human, UniProt P00746 20-253); assay: sandwich ELISA: coat goat polyclonal AF1824; 2 ug/mL recombinant CFD spiked into buffer or 10% Factor D-depleted serum; detection with 14A11 hybridoma supernatant diluted in half, HRP goat anti-mouse IgG Fc; OD450
T1 construct: also used for the endogenous pro-Factor D detected in 3MC patient serum; also called pro CFD; hPro-CFD
Description: ELISA plates were coated overnight at 4° C. with polyclonal goat anti-human CFD AF1824 (R&D Systems). Plate wells were washed, blocked, and washed again. Normal human serum pool, normal human plasma pool or Factor D-depleted human serum were diluted 10-fold in assay buffer (PBS with 1% BSA and 0.05% Tween 20, PBST-BSA), either un-spiked or spiked with 2 μg/mL recombinant pro-(pro CFD) or mature-factor D (mature CFD). These matrices, including a buffer control with or without recombinant protein spiked in, were incubated for 60 minutes at room temperature, and then washed. […] The detection antibodies were incubated for one hour at room temperature and washed, then developed with a horseradish peroxidase (HRP)-labeled goat polyclonal to mouse IgG Fc (Jackson ImmunoResearch).

[2] = molecular target: T2, recombinant human mature Factor D (human, UniProt P00746 26-253); assay: sandwich ELISA: coat 3C5 (human IgG4), sample titrated (ug/ml Df), detection 14A11 (mouse IgG2a), HRP donkey anti-mouse IgG; OD450
T2 construct: also called mature CFD; hCFD
Excerpt: (§1) An HRP-labeled F(ab′)₂ fragment donkey anti-mouse IgG H&L antibody (Jackson ImmunoResearch) was used to signal the detection antibody, followed by development with TMB substrate (ThermoFisher).

[3] = molecular target: T2, recombinant human mature Factor D; assay: sandwich ELISA: coat 12H10 (human IgG4), sample titrated (ug/ml Df), detection 14A11 (mouse IgG2a), HRP donkey anti-mouse IgG; OD450
Excerpt: as §1

[4] = molecular target: T3, recombinant cynomolgus mature Factor D (cynomolgus monkey); assay: as above
T3 construct: mature; not tied by words to this reagent; also called cy Mat CFD; cynomolgus recombinant mature Factor D
Excerpt: as §1

[5] = molecular target: T2, recombinant human mature Factor D; assay: sandwich ELISA: coat 3C5 (human IgG4) 3 ug/mL, sample in 3-fold dilutions (ug/ml Df), detection 14A11 (mouse IgG2a) 3 ug/mL, HRP donkey anti-mouse IgG; OD450
Description: as §1
(§2) Wells were then washed three times. […] The plates were washed three times. 100 μL of Horseradish Peroxidase labeled F(ab′)2 Fragment Donkey anti-Mouse IgG H&L antibody (Jackson ImmunoResearch), diluted 1:30,000, was added to each well and incubated for one hour at room temperature. Wells were then washed three times.

[6] = molecular target: T3, recombinant cynomolgus mature Factor D; assay: as above
Description: as §1, §2

[7] = molecular target: T4, purified (from human plasma) human Factor D (human, UniProt P00746 26-253); assay: as above
T4 construct: also called hu purif; CFD; purified human complement factor D (Complement Technologies)
Description: as §1, §2

[8] = molecular target: T3, recombinant cynomolgus mature Factor D; assay: sandwich ELISA standard curve: coat 3C5 (human IgG4) 3 ug/mL, recombinant cynomolgus mature Factor D titrated, detection 14A11 3 ug/mL, HRP donkey anti-mouse IgG; OD450
Excerpt: After washing, an HRP-labeled secondary antibody (HRP-labeled F(ab′)2 Fragment Donkey anti-Mouse IgG H&L antibody (Jackson ImmunoResearch)) was used to signal the detection antibody, followed by development with TMB (ThermoFisher). Samples were interpolated from a 4-parameter logistics curve of cynomolgus recombinant mature Factor D dilutions.

B1: 14A11, hybridoma supernatant (antibody, V domains shown)
VH: QITLKESGPGILQSSQTLSLTCSFSGVSLTTSGMGVSWIRQPSGKGLEWLAHIYWDDEKHYHPSLKSRLTISKDASRNQVFFRILSVDTADTATYYCALRYYGYRSFMDYWGQGTSVTVSS
VL: DVLMTQSPLSLPVSLGDQASIFCRSNQSIVHSNGNTYFEWYLQKPGQSPKLLIYKVSNRFSGVPDRFSGSGSGTDFTLRISRVEAEDLGIYYCFQGSHVPPTFGGGTKLEIKR
notes: Mouse hybridoma antibody
binding result [1]: no binding

B2: 14A11, mouse IgG2a Fc version (antibody)
heavy: QITLKESGPGILQSSQTLSLTCSFSGVSLTTSGMGVSWIRQPSGKGLEWLAHIYWDDEKHYHPSLKSRLTISKDASRNQVFFRILSVDTADTATYYCALRYYGYRSFMDYWGQGTSVTVSSAKTTAPSVYPLAPVCGDTTGSSVTLGCLVKGYFPEPVTLTWNSGSLSSGVHTFPAVLQSDLYTLSSSVTVTSSTWPSQSITCNVAHPASSTKVDKKIEPRGPTIKPCPPCKCPAPNLLGGPSVFIFPPKIKDVLMISLSPIVTCVVVDVSEDDPDVQISWFVNNVEVHTAQTQTHREDYNSTLRVVSALPIQHQDWMSGKEFKCKVNNKDLPAPIERTISKPKGSVRAPQVYVLPPPEEEMTKKQVTLTCMVTDFMPEDIYVEWTNNGKTELNYKNTEPVLDSDGSYFMYSKLRVEKKNWVERNSYSCSVVHEGLHNHHTTKSFSRTPGK
light: DVLMTQSPLSLPVSLGDQASIFCRSNQSIVHSNGNTYFEWYLQKPGQSPKLLIYKVSNRFSGVPDRFSGSGSGTDFTLRISRVEAEDLGIYYCFQGSHVPPTFGGGTKLEIKRADAAPTVSIFPPSSEQLTSGGASVVCFLNNFYPKDINVKWKIDGSERQNGVLNSWTDQDSKDSTYSMSSTLTLTKDEYERHNSYTCEATHKTSTSPIVKSFNRNEC
notes: Recombinant, mouse IgG2a and mouse kappa constant regions; also called mAb 14A11; detection antibody 14A11 (anti-human/cyno mature-Factor D-specific)
EC50 (read off the curve) [2]: ~0.02 µg/mL | EC50 (read off the curve) [3]: ~0.04 µg/mL | EC50 (read off the curve) [4]: ~0.08 µg/mL | EC50 (read off the curve) [5]: ~0.03 µg/mL | EC50 (read off the curve) [6]: ~0.06 µg/mL | EC50 (read off the curve) [7]: ~0.04 µg/mL | EC50 (read off the curve) [8]: ~0.06 µg/mL
